Test results as given in patent publication US20210238260A1 (published 2021).
Numbering of substitutions follows the chain as printed. Numbers in names are those of the source.

B1: FIXa variant A103N/N105S/K247N/N249S/R318Y/R338E/R403E/E410N (enzyme)
light: YNSGKLEEFVQGNLERECMEEKCSFEEAREVFENTERTTEFWKQYVDGDQCESNPCLNGGSCKDDINSYECWCPFGFEGKNCELDVTCNIKNGRCEQFCKNSNDSKVVCSCTEGYRLAENQKSCEPAVPFPCGRVSVSQTSKLTR
heavy: VVGGEDAKPGQFPWQVVLNGKVDAFCGGSIVNEKWIVTAAHCVETGVKITVVAGEHNIEETEHTEQNRSVIRIIPHHNYNAAINKYNHDIALLELDEPLVLNSYVTPICIADKEYTNIFLKFGSGYVSGWGRVFHKGYSALVLQYLRVPLVDRATCLESTKFTIYNNMFCAGFHEGGRDSCQGDSGGPHVTEVEGTSFLTGIISWGEECAMKGKYGIYTKVSEYVNWIKNKTKLT
B2: FIXa variant D104N/K106S/I251S/R318Y/R338E/E410N (enzyme)
light: B1 light with N103A, D104N, S105N, K106S
heavy: B1 heavy with N67K, S69N, I71S, E223R
B3: FIXa variant D104N/K106S/I251S/R318Y/R338E/R403E/E410N (enzyme)
light: B1 light with N103A, D104N, S105N, K106S
heavy: B1 heavy with N67K, S69N, I71S
B4: FIXa variant D104N/K106S/K247N/N249S/R318Y/R338E/R403E/E410N (enzyme)
light: B1 light with N103A, D104N, S105N, K106S
heavy: B1 heavy
B5: FIXa variant I251S/R318Y/R338E/E410N (enzyme)
light: B1 light with N103A, S105N
heavy: B1 heavy with N67K, S69N, I71S, E223R
notes: also called I86S/R150Y/R170E/E240N; I251S/R318Y/E410N/R338E
B6: FIXa variant I251S/R318Y/R338E/R403E/E410N (enzyme)
light: B1 light with N103A, S105N
heavy: B1 heavy with N67K, S69N, I71S
notes: also called I86S/R150Y/R170E/R233E/E240N
B7: FIXa variant K228N/K247N/N249S (enzyme)
light: B1 light with N103A, S105N
heavy: B1 heavy with K48N, Y138R, E158R, E223R, N230E
notes: also called K63N/K82N/N84S
B8: FIXa variant K228N/K247N/N249S/R318Y/R338E/R403E/E410N (enzyme)
light: B1 light with N103A, S105N
heavy: B1 heavy with K48N
notes: also called K63N/K82N/N84S/R150Y/R170E/R233E/E240N
B9: FIXa variant K247N/N249S/N260S (enzyme)
light: B1 light with N103A, S105N
heavy: B1 heavy with N80S, Y138R, E158R, E223R, N230E
notes: also called K82N/N84S/N95S
B10: FIXa variant K247N/N249S/N260S/R318Y/R338E/R403E/E410N (enzyme)
light: B1 light with N103A, S105N
heavy: B1 heavy with N80S
notes: also called K82N/N84S/N95S/R150Y/R170E/R233E/E240N
B11: FIXa variant R318Y/R338E/E410N/T412V (enzyme)
light: B1 light with N103A, S105N
heavy: B1 heavy with N67K, S69N, E223R, T232V
notes: also called R150Y/R170E/E240N/T242V
B12: FIXa variant R318Y/R338E/E410S (enzyme)
light: B1 light with N103A, S105N
heavy: B1 heavy with N67K, S69N, E223R, N230S
notes: also called R150Y/R170E/E240S
B13: FIXa variant R318Y/R338E/N346D/R403E/E410N (enzyme)
light: B1 light with N103A, S105N
heavy: B1 heavy with N67K, S69N, N166D
notes: also called R150Y/R170E/N178D/R233E/E240N
B14: FIXa variant R318Y/R338E/N346Y/R403E/E410N (enzyme)
light: B1 light with N103A, S105N
heavy: B1 heavy with N67K, S69N, N166Y
notes: also called R150Y/R170E/N178Y/R233E/E240N
B15: FIXa-R318Y/R338E/T343R/E410N (enzyme)
chain 1: B1 light with N103A, S105N
chain 2: B1 heavy with N67K, S69N, T163R, E223R
notes: also called R150Y/R170E/T175R/E240N (chymotrypsin numbering)
B16: FIXa-K228N/K247N/N249S/R318Y/R338E/T343R/R403E/E410N (enzyme)
chain 1: B1 light with N103A, S105N
chain 2: B1 heavy with K48N, T163R
notes: also called K63N/K82N/N84S/R150Y/R170E/T175R/R233E/E240N (chymotrypsin numbering)
B17: FIXa-K247N/N249S/R318Y/R338E/T343R (enzyme)
chain 1: B1 light with N103A, S105N
chain 2: B1 heavy with T163R, E223R, N230E
notes: also called K82N/N84S/R150Y/R170E/T175R (chymotrypsin numbering)
B18: FIXa-R318Y/R338E/T343R (enzyme)
chain 1: B1 light with N103A, S105N
chain 2: B1 heavy with N67K, S69N, T163R, E223R, N230E
notes: also called R150Y/R170E/T175R (chymotrypsin numbering); CB2679d
B19: FIXa-R338E/T343R/E410N (enzyme)
chain 1: B1 light with N103A, S105N
chain 2: B1 heavy with N67K, S69N, Y138R, T163R, E223R
notes: also called R170E/T175R/E240N (chymotrypsin numbering)
B20: FIXa-R338E/T343R/R403E (enzyme)
chain 1: B1 light with N103A, S105N
chain 2: B1 heavy with N67K, S69N, Y138R, T163R, N230E
notes: also called R170E/T175R/R233E (chymotrypsin numbering)
B21: FIXa-R338E/T343R/R403E/E410N (enzyme)
chain 1: B1 light with N103A, S105N
chain 2: B1 heavy with N67K, S69N, Y138R, T163R
notes: also called R170E/T175R/R233E/E240N (chymotrypsin numbering)
B22: FIXa-Y155F/K228N/K247N/N249S/R318Y/R338E/T343R/R403E/E410N (enzyme)
chain 1: B1 light with N103A, S105N
chain 2: B1 heavy with K48N, T163R
B23: FIXa-Y155F/K247N/N249S/R318Y/R338E/T343R (enzyme)
chain 1: B1 light with N103A, S105N
chain 2: B1 heavy with T163R, E223R, N230E
B24: FIXa-Y155F/R318Y/R338E/T343R (enzyme)
chain 1: B1 light with N103A, S105N
chain 2: B1 heavy with N67K, S69N, T163R, E223R, N230E
B25: FIXa-Y155F/R338E/T343R/E410N (enzyme)
chain 1: B1 light with N103A, S105N
chain 2: B1 heavy with N67K, S69N, Y138R, T163R, E223R
B26: FIXa-Y155F/R338E/T343R/R403E (enzyme)
chain 1: B1 light with N103A, S105N
chain 2: B1 heavy with N67K, S69N, Y138R, T163R, N230E
B27: FIXa-Y155F/R338E/T343R/R403E/E410N (enzyme)
chain 1: B1 light with N103A, S105N
chain 2: B1 heavy with N67K, S69N, Y138R, T163R
B28: FIXa-Y155F/R318Y/R338E/T343R/E410N (enzyme)
chain 1: B1 light with N103A, S105N
chain 2: B1 heavy with N67K, S69N, T163R, E223R
B29: FIXa variant D104N/K106S/K247N/N249S/N260S (enzyme)
light: B1 light with N103A, D104N, S105N, K106S
heavy: B1 heavy with N80S, Y138R, E158R, E223R, N230E
B30: FIXa variant D104N/K106S/Y155F/K247N/N249S/N260S (enzyme)
light: B1 light with N103A, D104N, S105N, K106S
heavy: B1 heavy with N80S, Y138R, E158R, E223R, N230E
B31: FIXa variant K247N/N249S/R318Y/R338E/R403E/E410N (enzyme)
light: B1 light with N103A, S105N
heavy: B1 heavy
notes: also called K82N/N84S/R150Y/R170E/R233E/E240N
B32: FIXa variant Y155F/K247N/N249S/R318Y/R338E/R403E/E410N (enzyme)
light: B1 light with N103A, S105N
heavy: B1 heavy

Target: T1, Factor VIIIa (FVIIIa), from recombinant FVIII (Kogenate FS; Bayer healthcare) activated with alpha-thrombin (UniProt P00451 20-2351)
T1 sequence (looked up): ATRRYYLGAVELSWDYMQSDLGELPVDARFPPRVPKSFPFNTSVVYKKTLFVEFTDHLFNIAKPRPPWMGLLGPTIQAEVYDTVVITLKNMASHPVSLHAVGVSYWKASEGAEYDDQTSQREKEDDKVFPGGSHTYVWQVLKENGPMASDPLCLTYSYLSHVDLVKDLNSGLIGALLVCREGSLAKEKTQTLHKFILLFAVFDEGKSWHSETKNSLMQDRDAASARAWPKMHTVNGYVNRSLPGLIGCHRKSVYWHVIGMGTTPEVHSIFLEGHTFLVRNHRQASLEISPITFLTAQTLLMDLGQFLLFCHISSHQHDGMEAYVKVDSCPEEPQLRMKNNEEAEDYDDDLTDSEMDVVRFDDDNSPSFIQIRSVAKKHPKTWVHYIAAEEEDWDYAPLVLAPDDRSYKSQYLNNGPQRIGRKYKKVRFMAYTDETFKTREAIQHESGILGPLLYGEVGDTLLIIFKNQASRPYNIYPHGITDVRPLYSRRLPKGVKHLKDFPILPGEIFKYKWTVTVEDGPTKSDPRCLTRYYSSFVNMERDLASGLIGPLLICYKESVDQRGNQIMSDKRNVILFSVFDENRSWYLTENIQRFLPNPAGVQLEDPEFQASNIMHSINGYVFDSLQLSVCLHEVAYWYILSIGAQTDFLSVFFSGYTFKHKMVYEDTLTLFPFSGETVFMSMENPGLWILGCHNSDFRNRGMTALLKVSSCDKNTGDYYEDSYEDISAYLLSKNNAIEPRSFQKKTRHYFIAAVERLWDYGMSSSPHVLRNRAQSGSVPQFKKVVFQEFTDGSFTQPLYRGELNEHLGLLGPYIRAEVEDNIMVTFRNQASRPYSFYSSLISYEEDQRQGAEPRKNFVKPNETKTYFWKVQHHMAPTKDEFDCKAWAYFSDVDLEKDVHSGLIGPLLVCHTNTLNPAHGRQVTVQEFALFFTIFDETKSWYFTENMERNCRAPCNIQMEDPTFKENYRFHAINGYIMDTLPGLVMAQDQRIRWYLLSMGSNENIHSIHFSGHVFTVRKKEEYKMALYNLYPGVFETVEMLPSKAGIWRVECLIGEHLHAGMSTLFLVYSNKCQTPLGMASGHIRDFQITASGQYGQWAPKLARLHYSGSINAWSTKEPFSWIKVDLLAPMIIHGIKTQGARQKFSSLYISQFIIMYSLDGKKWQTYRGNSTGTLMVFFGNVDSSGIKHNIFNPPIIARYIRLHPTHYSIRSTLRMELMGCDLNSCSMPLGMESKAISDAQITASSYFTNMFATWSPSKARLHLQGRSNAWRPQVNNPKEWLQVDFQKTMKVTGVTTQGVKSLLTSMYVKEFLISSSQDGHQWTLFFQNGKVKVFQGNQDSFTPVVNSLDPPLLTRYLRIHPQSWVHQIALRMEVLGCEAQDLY
Assay: ratio of KD-app of Catalyst Biosciences WT FIXa to KD-app of the variant, same Xase assay

In order of rising KD-WT/KD-mut:
1. B9  0.6 fold
2. B7  0.8 fold
3. B8  0.9 fold
4. B13  0.9 fold
5. B1  1 fold
6. B4  1.1 fold
7. B6  1.5 fold
8. B10  1.5 fold
9. B3  1.7 fold
10. B14  2.4 fold
11. B2  7.7 fold
12. B11  10.7 fold
13. B12  14.1 fold
14. B5  16.7 fold

Target: T2, Factor VIIIa (recombinant FVIII, Kogenate FS, activated with alpha-thrombin) (UniProt P00451 20-2351)
T2 construct: also called FVIIIa
T2 sequence (looked up): T1 sequence (looked up)
Assay: functional cofactor affinity KD-app: fluorogenic FX activation (Xase) assay, FVIIIa titrated, PC/PS vesicles, saturating FX

In order of falling Kd:
1. B26  72.1 nM
2. B20  55 nM
3. B22  37 nM
4. B21  29.4 nM
5. B16  29.1 nM
6. B27  28.5 nM
7. B17  14.7 nM
8. B23  14 nM
9. B18  9.8 nM
10. B25  8.5 nM
11. B24  8.4 nM
12. B19  7.5 nM
13. B28  7.4 nM
14. B15  6.1 nM

Target: T1, Factor VIIIa (FVIIIa), from recombinant …
Assay: apparent functional KD (KD-app): FX activation rate vs FVIIIa titration, fluorogenic Xase assay with PC/PS vesicles and Ca2+

In order of rising Kd:
1. B5  5.7 nM
2. B12  6.8 nM
3. B11  8.9 nM
4. B2  12.4 nM
5. B14  39.6 nM
6. B32  45.8 nM
7. B3  54.7 nM
8. B6  62.7 nM
9. B10  65 nM
10. B31  68.6 nM
11. B4  87.4 nM
12. B1  93.1 nM
13. B8  100 nM
14. B13  110 nM
15. B7  113 nM
16. B30  142 nM
17. B9  147 nM
18. B29  330 nM
